Measured values: CN116836273A

Legend:
[1] = biological target: 血清淀粉样蛋白A (Serum amyloid A, SAA) (UniProt P0DJI8); experiment: BLI, antibody captured on AMC sensor, SAA in solution
[2] = biological target: 血清淀粉样蛋白A (Serum amyloid A, SAA) (UniProt P0DJI8); experiment: indirect ELISA, SAA coated at 2 ug/ml, antibody at 0 ng/ml (blank)
[3] = biological target: 血清淀粉样蛋白A (Serum amyloid A, SAA) (UniProt P0DJI8); experiment: indirect ELISA, SAA coated at 2 ug/ml, antibody at 7.5 ng/ml
[4] = biological target: 血清淀粉样蛋白A (Serum amyloid A, SAA) (UniProt P0DJI8); experiment: indirect ELISA, SAA coated at 2 ug/ml, antibody at 3.75 ng/ml
[5] = biological target: 血清淀粉样蛋白A (Serum amyloid A, SAA) (UniProt P0DJI8); experiment: indirect ELISA, SAA coated at 2 ug/ml, antibody at 30 ng/ml
[6] = biological target: 血清淀粉样蛋白A (Serum amyloid A, SAA) (UniProt P0DJI8); experiment: indirect ELISA, SAA coated at 2 ug/ml, antibody at 15 ng/ml
[7] = biological target: 血清淀粉样蛋白A (Serum amyloid A, SAA) (UniProt P0DJI8); experiment: indirect ELISA, SAA coated at 2 ug/ml, antibody at 60 ng/ml

Chain of UniProt P0DJI8 (P0DJI8 19-122 limits assumed): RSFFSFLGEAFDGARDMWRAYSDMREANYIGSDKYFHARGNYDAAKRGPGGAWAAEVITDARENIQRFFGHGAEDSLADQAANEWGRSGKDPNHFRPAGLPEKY

Kd [1]: 7.98 nM
koff [1]: 9.82e-05 s⁻¹
kon [1]: 12300 M⁻¹ s⁻¹
OD (OD450 (ref. 630 nm)) [2]: 0.009
OD (OD450 (ref. 630 nm)) [3]: 0.562
OD (OD450 (ref. 630 nm)) [4]: 0.316
OD (OD450 (ref. 630 nm)) [5]: 1.63
OD (OD450 (ref. 630 nm)) [6]: 0.912
OD (OD450 (ref. 630 nm)) [7]: 1.79
Substance: 对照 (control antibody)
